The numbers were not newly measured in patent US20100167984A1, “Complex between human insulin and an amphiphilic polymer and use of this complex in the preparation of a fast-acting human insulin formulation” (ADOCIA, priority 2008, published 2010), which cites them from elsewhere.

For series [1] the following is noted: hexamer form, at 4° C.
The conditions of series [2]: due to dissociation equilibria of hexamers; Brange J. et al. 1999.

Turning to “Human insulin: human insulin, assembled in the hexamer form”, the “stability (storage time)” value in series [1] is listed as “approximately 2 years”. Besides, in series [2], the “slowing down of action in comparison with a fast-acting insulin analog” value is “approximately 20 minutes”.
